Results published in PMC11315935, “Multi-layered heterochromatin interaction as a switch for DIM2-mediated DNA methylation” (Nature Communications, 2024).
Positions count from the first letter of the chain named. Names may count otherwise.

B1: DIM2 (Defective-In-Methylation-2) N-terminal fragment, residues 1-1242, wild type (domain or fragment, Neurospora crassa, UniProt Q3Y3Z1 1-1242, looked up)
chain: MDSPDRSHGGMFIDVPAETMGFQEDYLDMFASVLSQGLAKEGDYAHHQPLPAGKEECLEPIAVATTITPSPDDPQLQLQLELEQQFQTESGLNGVDPAPAPESEDEADLPDGFSDESPDDDFVVQRSKHITVDLPVSTLINPRSTFQRIDENDNLVPPPQSTPERVAVEDLLKAAKAAGKNKEDYIEFELHDFNFYVNYAYHPQEMRPIQLVATKVLHDKYYFDGVLKYGNTKHYVTGMQVLELPVGNYGASLHSVKGQIWVRSKHNAKKEIYYLLKKPAFEYQRYYQPFLWIADLGKHVVDYCTRMVERKREVTLGCFKSDFIQWASKAHGKSKAFQNWRAQHPSDDFRTSVAANIGYIWKEINGVAGAKRAAGDQLFRELMIVKPGQYFRQEVPPGPVVTEGDRTVAATIVTPYIKECFGHMILGKVLRLAGEDAEKEKEVKLAKRLKIENKNATKADTKDDMKNDTATESLPTPLRSLPVQVLEATPIESDIVSIVSSDLPPSENNPPPLTNGSVKPKAKANPKPKPSTQPLHAAHVKYLSQELVNKIKVGDVISTPRDDSSNTDTKWKPTDTDDHRWFGLVQRVHTAKTKSSGRGLNSKSFDVIWFYRPEDTPCCAMKYKWRNELFLSNHCTCQEGHHARVKGNEVLAVHPVDWFGTPESNKGEFFVRQLYESEQRRWITLQKDHLTCYHNQPPKPPTAPYKPGDTVLATLSPSDKFSDPYEVVEYFTQGEKETAFVRLRKLLRRRKVDRQDAPANELVYTEDLVDVRAERIVGKCIMRCFRPDERVPSPYDRGGTGNMFFITHRQDHGRCVPLDTLPPTLRQGFNPLGNLGKPKLRGMDLYCGGGNFGRGLEEGGVVEMRWANDIWDKAIHTYMANTPDPNKTNPFLGSVDDLLRLALEGKFSDNVPRPGEVDFIAAGSPCPGFSLLTQDKKVLNQVKNQSLVASFASFVDFYRPKYGVLENVSGIVQTFVNRKQDVLSQLFCALVGMGYQAQLILGDAWAHGAPQSRERVFLYFAAPGLPLPDPPLPSHSHYRVKNRNIGFLCNGESYVQRSFIPTAFKFVSAGEGTADLPKIGDGKPDACVRFPDHRLASGITPYIRAQYACIPTHPYGMNFIKAWNNGNGVMSKSDRDLFPSEGKTRTSDASVGWKRLNPKTLFPTVTTTSNPSDARMGPGLHWDEDRPYTVQEMRRAQGYLDEEVLVGRTTDQWKLVGNSVSRHMALAIGLKFREAWLGTLYD
B2: DIM2 (residues 1-1242) R1104A mutant (domain or fragment, Neurospora crassa, UniProt Q3Y3Z1 1-1242, looked up)
chain: B1 chain with R1104A
B3: DIM2 (residues 1-1242) L134A/L139A double mutant (domain or fragment, Neurospora crassa, UniProt Q3Y3Z1 1-1242, looked up)
chain: B1 chain with L134A, L139A
B4: heterochromatin protein 1 (HP1), full length, residues 1-266 (natural protein, Neurospora crassa, UniProt Q1K612 1-266, looked up)
chain: MPYDPSALSDEEAASSVELDTRSATSSSKKQSRDKKSVKYTIPEPEDFEDEEQNGDGADEGGEDDEEGDEEEEDVYVVEKILDHMLNDDNEPLFLVKWEGYEKKSDQTWEPEDTLIEGASERLKEYFTKIGGREKIFEASAAAQKIKKRGRPSSNSGTPQASSNKRSRKNGDHPLNSEEPQTAKNAAWKPPAGSWEEHIAQLDACEDEDTHKLMVYLTWKNGHKTQHTTDVIYKRCPQKMLQFYERHVRIIKRDPDSEDREGSVSQ
notes: HP1, Neurospora crassa, UniProt Q1K612, residues 1-266, synthetic codon-optimised gene; Homodimer through its chromo shadow domains in the cryo-EM structures; only the CSDs (K189-I251, C191-I251) were traced; also called HP1-I; HP1-II; source: E. coli BL21 (DE3) RIL, purified (Ni-NTA, heparin, TEV cleavage, second Ni-NTA, SEC); not shown: His6, N-terminal, cleaved; MBP, N-terminal, cleaved

Experiments:
[1] = target: histone H3 peptide (residues 1-24) with H3K9me3, plus a C-terminal tryptophan (UniProt P68431 2-25, trimethyl-lysine at K9); experiment: cell-based or functional assay
[2] = target: B4; experiment: cell-based or functional assay
[3] = target: B1; experiment: SEC; analytical SEC, 1.0 µM DIM2 and/or 2.5 µM HP1 on Superdex 200 increase 10/300 GL, 20 mM Tris-HCl pH 7.5, 100 mM NaCl, 5% glycerol, 5 mM DTT; fractions on SDS-PAGE; conditions: both partners purified
[4] = target: B3; experiment: as above; conditions: both partners purified

B1
in vitro DNA methylation of a 36-mer duplex by DIM2 with HP1 and H3K9me3 peptide, against the DIM2-HP1 mixture [1]: ~90 fold

B2
in vitro DNA methylation: activity-stimulation effect of HP1, reduction against WT DIM2 [2]: ~8 fold
thermal shift assay: change of the Tm of DIM2 on co-incubation with HP1 [2]: 2.5 °C

B3
in vitro DNA methylation of (CTA)12/(TAG)12 duplex with HP1 and H3(1-24)K9me3 peptide; reduction against WT DIM2 [2]: 14 fold

B4
binding result [3]: binds
binding result [4]: binds
